Values of other authors as cited in paper PMC4448172.

Molecular target: KV1.3 (UniProt P22001)
Sequence of UniProt P22001 (P22001 whole entry): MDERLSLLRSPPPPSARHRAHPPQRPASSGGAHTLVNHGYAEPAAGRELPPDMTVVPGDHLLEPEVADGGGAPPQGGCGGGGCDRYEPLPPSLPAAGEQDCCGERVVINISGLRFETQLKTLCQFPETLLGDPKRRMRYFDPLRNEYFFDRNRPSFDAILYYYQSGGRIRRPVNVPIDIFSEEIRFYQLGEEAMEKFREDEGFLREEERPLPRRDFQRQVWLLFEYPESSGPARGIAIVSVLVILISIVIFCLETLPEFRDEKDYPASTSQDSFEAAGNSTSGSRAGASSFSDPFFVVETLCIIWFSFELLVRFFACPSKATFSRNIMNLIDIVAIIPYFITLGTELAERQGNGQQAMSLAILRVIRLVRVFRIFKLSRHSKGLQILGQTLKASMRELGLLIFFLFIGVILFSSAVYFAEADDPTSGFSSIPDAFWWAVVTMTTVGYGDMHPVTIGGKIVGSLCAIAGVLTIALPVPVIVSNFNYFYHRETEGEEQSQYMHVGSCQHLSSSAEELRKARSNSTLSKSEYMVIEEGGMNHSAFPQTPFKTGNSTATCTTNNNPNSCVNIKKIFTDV

Q: Which Kd does the source give for ShK (from UniProt P29187) here?
A: 0.011 nM
